Assay results published in publication PMC9776393, “Gold Nanoparticles-MWCNT Based Aptasensor for Early Diagnosis of Prostate Cancer”.

Molecular target: prostate-specific antigen (PSA) (human (semen), UniProt P07288 25-261)
Experiment: electrochemical aptasensor (DPV); MCH-blocked MWCNT/AuNP electrode; LoD 1 pg/mL, linear 1-100 ng/mL (abstract) or 0.001-100 ng/mL (Table 2); PBS pH 7.2, [Fe(CN)6]3-/4- redox probe, 5 min binding; aptamer heated to 95 C and cooled, immobilized at room temperature with MgCl2 and NaCl; binding temperature not stated
Conditions: protein: commercial

prostate-specific antigen (PSA), sequence (P07288 25-261): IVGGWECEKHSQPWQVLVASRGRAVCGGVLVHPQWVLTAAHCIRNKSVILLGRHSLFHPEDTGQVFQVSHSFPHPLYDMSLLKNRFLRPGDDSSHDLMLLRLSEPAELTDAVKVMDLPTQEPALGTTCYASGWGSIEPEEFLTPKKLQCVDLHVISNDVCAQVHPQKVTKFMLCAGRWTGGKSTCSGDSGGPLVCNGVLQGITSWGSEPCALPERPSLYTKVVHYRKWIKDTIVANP

TTTTTAATTAAAGCTCGCCATCAAATAGCTTT (ssDNA, 5'-HS-(CH2)6 thiol) [PSA aptamer]
binding result: binds
